Entries after “also recorded” stand apart in the source; their conditions may differ.
Experiments:
SMYD2 [1] = biological target: T1, SMYD2 (Homo sapiens, UniProt Q9NRG4); assay: In vitro SMYD2 methyltransferase assay with protein substrates (SDS-PAGE, 3H fluorography); assay type: biochemical; details: 1 μg of KMT, 1 μg of substrate, 1 μCi 3H-SAM, 1 hour, room temperature; 3H fluorography (Fig. 5A, 5B, fig. S5A)
T1 construct: SMYD2 (full length) was expressed as a N-terminal glutathione S-transferase (GST) fusion; GST (N); made in house; host or cells: Escherichia coli BL21(DE3)
Description: Reactions (10 μl) containing 1 μg of KMT, 1 μg of the indicated substrates, and 1 μCi of ^3H-SAM (PerkinElmer) in KMT reaction buffer were incubated for 1 hour at room temperature. Reactions were quenched by the addition of SDS loading buffer and resolved by SDS–polyacrylamide gel electrophoresis. Following the detection of total protein by Coomassie staining, gels were treated with EN^3HANCE (PerkinElmer) and dried, and methylated proteins were detected by autoradiography.
Fig. S5. In vitro SMYD2 assays with protein substrates. (A) Coomassie stained SDS-PAGE of recombinant control (HIS-GST), known substrates (p53, MAPKAPK3), and predicted substrates (PRDM11, GDAP1, MAP3K12) in the absence and presence of SMYD2. Reactions were carried out with 1 μg of SMYD2, 1 μg of substrate, and 1 μCi of 3H-SAM. 3H fluorograph shown below after 24 hour exposure at -80 °C (B) Cartoon repre- sentation of ZPK (PDB:
5CEN) showing plus and minus three amino acids from the target lysine (PO) as stick models.
(1 picture or pasted object on this page, not shown here)

SMYD2 [2] = biological target: T1, SMYD2; assay: SPA kinetic analysis of SMYD2 methylation of peptide substrates; assay type: biochemical; details: 200 nM SMYD2, 50 μM SAM, varied substrate concentration, mean of three independent measurements (Fig. 4D)
Description: Reactions (10 μl) containing 1 μg of KMT, 1 μg of a K-OPL set, and 1 μCi of ^3H-SAM (PerkinElmer) in KMT reaction buffer [50 mM tris (pH 8.8), 5 mM MgCl2, and 4 mM dithiothreitol] were incubated for 1 hour at room temperature. Reactions were stopped by adding trifluoracetic acid to a final concentration of 0.5%, neutralized by diluting with 135 μl of 50 mM NaHCO3, and transferred to streptavidin-coated FlashPlates (PerkinElmer). Plates were incubated for 15 min, sealed, and counted in a MicroBeta2 liquid scintillation counter (PerkinElmer) for 1 min per sample. Initial rate measure and kinetic analysis were performed using the same procedure with 200 nM SMYD2, 50 μM SAM (5:1 cold/hot ratio), and 80 μM substrate (initial rate measurements) or as indicated (kinetic analysis). IC50 measurements were performed using the same conditions with 5 μM PER2 peptide as a substrate.

T1 sequence (Q9NRG4 whole entry, the tested form may be a part): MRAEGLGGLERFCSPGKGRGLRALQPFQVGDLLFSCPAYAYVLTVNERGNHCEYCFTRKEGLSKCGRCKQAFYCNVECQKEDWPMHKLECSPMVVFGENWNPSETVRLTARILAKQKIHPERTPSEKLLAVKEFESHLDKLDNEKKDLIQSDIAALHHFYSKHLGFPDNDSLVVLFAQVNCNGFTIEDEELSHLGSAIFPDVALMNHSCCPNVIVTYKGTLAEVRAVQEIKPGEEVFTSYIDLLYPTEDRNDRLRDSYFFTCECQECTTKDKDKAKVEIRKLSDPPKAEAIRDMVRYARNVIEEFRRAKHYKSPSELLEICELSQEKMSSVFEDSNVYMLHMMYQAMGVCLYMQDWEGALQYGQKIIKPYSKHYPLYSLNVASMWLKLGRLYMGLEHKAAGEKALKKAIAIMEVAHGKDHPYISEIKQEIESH

Row | Molecule | methylation of recombinant protein substrate by SMYD2 (SMYD2 [1]) | kinetic model of SMYD2 methylation (SMYD2 [2])
1 | CDC5L: recombinant CDC5L (amino acids 150 to 280), N-terminal GST fusion (protein, UniProt Q99459 150-280, looked up, fragment, N-terminal GST fusion, recombinant CDC5L (amino acids 150 to 280), N-terminal GST fusion) EMLSEARARLANTQGKKAKRKAREKQLEEARRLAALQKRRELRAAGIEIQKKRKRKRGVDYNAEIPFEKKPALGFYDTSEENYQALDADFRKLRQQDLDGELRSEKEGRDRKKDKQHLKRKKESDLPSAIL | methylated by SMYD2; also recorded: at least as efficiently as the known substrate, p53 | –
2 | ATP6V1G3: recombinant ATP6V1G3 (full length), N-terminal GST fusion (protein, UniProt Q96LB4 1-118, looked up, full-length N-terminal GST fusion) MTSQSQGIHQLLQAEKRAKDKLEEAKKRKGKRLKQAKEEAMVEIDQYRMQRDKEFRLKQSKIMGSQNNLSDEIEEQTLGKIQELNGHYNKYMESVMNQLLSMVCDMKPEIHVNYRATN | methylated by SMYD2; also recorded: at least as efficiently as the known substrate, p53 | –
3 | GDAP1: recombinant GDAP1 (full length), Abcam (protein, UniProt Q8TB36 1-358, looked up, full-length, recombinant GDAP1 (full length), Abcam) MAERQEEQRGSPPLRAEGKADAEVKLILYHWTHSFSSQKVRLVIAEKALKCEEHDVSLPLSEHNEPWFMRLNSTGEVPVLIHGENIICEATQIIDYLEQTFLDERTPRLMPDKESMYYPRVQHYRELLDSLPMDAYTHGCILHPELTVDSMIPAYATTRIRSQIGNTESELKKLAEENPDLQEAYIAKQKRLKSKLLDHDNVKYLKKILDELEKVLDQVETELQRRNEETPEEGQQPWLCGESFTLADVSLAVTLHRLKFLGFARRNWGNGKRPNLETYYERVLKRKTFNKVLGHVNNILISAVLPTAFRVAKKRAPKVLGTTLVVGLLAGVGYFAFMLFRKRLGSMILAFRPRPNYF | methylated by SMYD2; also recorded: poor SMYD2 substrates | –
4 | MAPKAPK3: full-length recombinant MAPKAPK3, known SMYD2 substrate (protein, UniProt Q16644 1-382, looked up, full-length, full-length recombinant MAPKAPK3, known SMYD2 substrate) MDGETAEEQGGPVPPPVAPGGPGLGGAPGGRREPKKYAVTDDYQLSKQVLGLGVNGKVLECFHRRTGQKCALKLLYDSPKARQEVDHHWQASGGPHIVCILDVYENMHHGKRCLLIIMECMEGGELFSRIQERGDQAFTEREAAEIMRDIGTAIQFLHSHNIAHRDVKPENLLYTSKEKDAVLKLTDFGFAKETTQNALQTPCYTPYYVAPEVLGPEKYDKSCDMWSLGVIMYILLCGFPPFYSNTGQAISPGMKRRIRLGQYGFPNPEWSEVSEDAKQLIRLLLKTDPTERLTITQFMNHPWINQSMVVPQTPLHTARVLQEDKDHWDEVKEEMTSALATMRVDYDQVKIKDLKTSNNRLLNKRRKKQAGSSSASQGCNNQ | weaker than most of the newly identified SMYD2 substrates | –
5 | MAPKAPK3 (D353R and T356S): MAPKAPK3 with mutations predicted to enhance methylation (protein, UniProt Q16644 1-382, looked up, variant D353R T356S) MAP kinase-activated protein …: MDGETAEEQGGPVPPPVAPGGPGLGGAPGGRREPKKYAVTDDYQLSKQVLGLGVNGKVLECFHRRTGQKCALKLLYDSPKARQEVDHHWQASGGPHIVCILDVYENMHHGKRCLLIIMECMEGGELFSRIQERGDQAFTEREAAEIMRDIGTAIQFLHSHNIAHRDVKPENLLYTSKEKDAVLKLTDFGFAKETTQNALQTPCYTPYYVAPEVLGPEKYDKSCDMWSLGVIMYILLCGFPPFYSNTGQAISPGMKRRIRLGQYGFPNPEWSEVSEDAKQLIRLLLKTDPTERLTITQFMNHPWINQSMVVPQTPLHTARVLQEDKDHWDEVKEEMTSALATMRVDYDQVKIKRLKSSNNRLLNKRRKKQAGSSSASQGCNNQ | improved methylation of this protein | –
6 | PER2: recombinant PER2 (amino acids 691 to 900), N-terminal MBP-His fusion (protein, UniProt O15055 691-900, looked up, fragment, N-terminal MBP-His fusion, recombinant PER2 (amino acids 691 to 900), N-terminal MBP-His fusion) VEDAASGPESLDCLAGPALACGLSQEKEPFKKLGLTKEVLAAHTQKEEQSFLQKFKEIRKLSIFQSHCHYYLQERSKGQPSERTAPGLRNTSGIDSPWKKTGKNRKLKSKRVKPRDSSESTGSGGPVSARPPLVGLNATAWSPSDTSQSSCPAVPFPAPVPAAYSLPVFPAPGTVAAPPAPPHASFTVPAVPVDLQHQFAVQPPPFPAPL | methylated by SMYD2; also recorded: at least as efficiently as the known substrate, p53 | consistent with substrate inhibition
7 | ZPK: recombinant protein, predicted SMYD2 substrate (protein, UniProt Q12852 1-859, looked up) Mitogen-activated protein …: MACLHETRTPSPSFGGFVSTLSEASMRKLDPDTSDCTPEKDLTPTHVLQLHEQDAGGPGGAAGSPESRASRVRADEVRLQCQSGSGFLEGLFGCLRPVWTMIGKAYSTEHKQQQEDLWEVPFEEILDLQWVGSGAQGAVFLGRFHGEEVAVKKVRDLKETDIKHLRKLKHPNIITFKGVCTQAPCYCILMEFCAQGQLYEVLRAGRPVTPSLLVDWSMGIAGGMNYLHLHKIIHRDLKSPNMLITYDDVVKISDFGTSKELSDKSTKMSFAGTVAWMAPEVIRNEPVSEKVDIWSFGVVLWELLTGEIPYKDVDSSAIIWGVGSNSLHLPVPSSCPDGFKILLRQCWNSKPRNRPSFRQILLHLDIASADVLSTPQETYFKSQAEWREEVKLHFEKIKSEGTCLHRLEEELVMRRREELRHALDIREHYERKLERANNLYMELNALMLQLELKERELLRREQALERRCPGLLKPHPSRGLLHGNTMEKLIKKRNVPQKLSPHSKRPDILKTESLLPKLDAALSGVGLPGCPKGPPSPGRSRRGKTRHRKASAKGSCGDLPGLRTAVPPHEPGGPGSPGGLGGGPSAWEACPPALRGLHHDLLLRKMSSSSPDLLSAALGSRGRGATGGAGDPGSPPPARGDTPPSEGSAPGSTSPDSPGGAKGEPPPPVGPGEGVGLLGTGREGTSGRGGSRAGSQHLTPAALLYRAAVTRSQKRGISSEEEEGEVDSEVELTSSQRWPQSLNMRQSLSTFSSENPSDGEEGTASEPSPSGTPEVGSTNTDERPDERSDDMCSQGSEIPLDPPPSEVIPGPEPSSLPIPHQELLRERGPPNSEDSDCDSTELDNSNSVDALRPPASLPP | methylated by SMYD2; also recorded: poor SMYD2 substrates | –
